Test: yeast display, Sf9 membrane polyspecificity reagent, FACS + sequencing; frameworks hold sequencing errors
Procedure, shortened: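 A synthetic nanobody library was expressed on Saccharomyces cerevisiae BJ5465 by galactose induction for 36–48 hours. The library was stained for 1 hour at 4 °C with 10% biotinylated, detergent-solubilized Sf9 membrane reagent and enriched with streptavidin microbeads before FACS. Low and high (top ~1%) gates were set on anti-HA fluorescence for expression and streptavidin fluorescence for reagent binding, and each polyreactivity label reflects the gate of origin.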

Row | Sequence | polyreactivity (PSR sort gate)
1 | QVQLVESGGGLVQAGGSLRLSCAASGSIYYHNAMGWYRQAPGKERELVAAITGSGGSTYYADSVKGRFTISRDNAKNTVYLQMNSLKPEDTAVYYCAADGYTKWWISWGYDYWGQGTQVTVSS | low polyreactivity
2 | QVQLVESGGGLVQAGGSLRLTCAASGFTFRRYAMGCYRKAPGKERLLVAAISYSGGITYYADSVKGRFTISRDNAKNTVYLHMNSLKAEDTAVYYCAADYFAPYKTYDYWGQGTQVTVSS | high polyreactivity
3 | QVQHEESGGGLVQAGGSLRLSCAASGFTFFSNAMGWFRQAPGKERELVAAITTNGGSTYYADSVKGRFTISRDNAKNTVYLQMYSLKPEDTAGYYCAAEYGITDYDYWGQGTQVTVSS | low polyreactivity
4 | QVQLVESGGGLVQSGGSLRLSCAASGSIFYLYAMGWYRQAPGKERELVAAISWTGGSSYYADSVKGRFTISRDNAKNTVYLQMNSLKPEDTAVYYCAADRVLGGPQPGGSSFRGDYWGQGTQVTVSS | low polyreactivity
5 | QVQLVESGGGLVQAGGSLRLSCAASGSIFRFYAMGWYIQAPGKERELVAAIRFSGGNTYYADSVKGRFTISCDNAKNTVYLQMNSLKPEDTAVYYCAKYRRVKPKRYDYDYWGQGTQVTVSS | high polyreactivity
6 | QVQLVESGGGLVQAGGSLRLSCAASGRTIRYYTMGWYRQAPGKERELVAAISRSGGNTYYADSVKGRFTISRDNAKITVYLQMNSLKPEETAVYYCNKEYRHYVGRHDYWGQGTQVTVSS | high polyreactivity
7 | QVQLVESGGGLVQAGGSLRLSCAATVSIFDRNAMGWYRQAPGKERELVAAISSVGSTNYADSVKGRFTISRDNAKNTVYLQMNSLKPEDTADYYCAAENEFIPSLFDYWGQGTQVTVSS | low polyreactivity
8 | QFQLVESGGGLVQAGGSLRLSCAASGRTFWWYAMGWYRQAPGKERELVAAITSRGTTYYADSVKGRFTISRDNAKNTVYLQMNSLKPEDTAVYYCNAVQATRYTDYDYWGQGTQVTVSS | high polyreactivity
9 | QVQLVESGGGLVQAGASLRLSCAASGSTFGYYAMGWNRQAPGKERELVAAISTRGGSTYYADSVKGRFTISRDNAKTTVYLQMNSLKPEDIAVYYCAVLGTPYGLNDYCGQGTQVTVSS | high polyreactivity
10 | QVQLVESGGGLVQAGGSLLLSSAASGFTFGNNDMGWYRKSHGKERELVDAITKRGSSTYYADSVKGRFTISRDNAKNTVYLQMNSLKPEDTAVYHCAASWLGASGIRYDYWGQGTLVTVSS | high polyreactivity
11 | QVHLVESGGGLVQAGGSHRLSCAASGSIFWYNAMGWYRQAPGKERELVAGITYGGDTNYADSVKGRFTISRDNAKNTVYLQMNSLKPEDTAVYYCAKRWYGGRRYDYWGQGTQVTVSS | low polyreactivity
12 | QVQLVESGGGLVQAGGSIRLTCAASGGTFGRNAMGWYRQAPGKERELVATITRRGGSTYYADSVKGRFTISRDNAKTSVYLQMNSLKAEDTAVYYCAARDVYRGGLFDYWGQGTQVTVSS | high polyreactivity
13 | QVQLVESAGGLVQAGGSLRLSSAASAFTFYSNAMGWYRHAPGKEREFVAAGSTYYADSVKGRFTISRDNAKNTVYLQMNSLKPEDTAVYYCAADSYDVSRRYEYEYWGEGTQVTVSS | low polyreactivity
14 | QVQLVESGGGLVQAGGSLRLSCAASGRSSTRNAMGWYRQAPGKERELVAAITRSGGGTYYADSVKGRFTISRDNAKNTVYLQMNSLKPEDTAVYYCAADQLSPSDGYEYWGQGTQVTVSS | low polyreactivity
15 | QVQLVESGGGLVQAGGSLRLSCAASGSTFNFNVMGWYRQAPGKERELVAAISSSGGNTYYADSVKGRFTISRDNAKNTVYLQMNSLKPEDTAVYYCAAEYEEWYSVFLYDYWGQGTQVTVSS | high polyreactivity
16 | QVQLVESGGGLVQAGGSLRLSCAASGLTFYRYAMGWYRQAPGKERELVAAISSSGGSTYYADSVKGRFTISRDNAKNTVYLQMNSLKPEDTAVYYCAAKRVSVPYGYWGQGTQVTVSS | high polyreactivity
17 | QVQLVESGGGLVQAGGSLRLSCAASGITFYFYTMGWYRQAPGKERELVAAISRGGGSTYYADSVKGRFTISRDNAKNTVYLQMNSLKPEDTAVYYCAADYKPHYYHDDYWGQGTQVTVSS | low polyreactivity
18 | QVQLVESGGGLVQAGGSLRLSCAASGRIFYGYTMGWYIQAPGKERELVAAISKHAGSTYYSDSVKGRFTISRDNAKNTVYLQMNSLKPEDTAVYYCAKDSSVQAYYGYWYTSTDDYWGQGTQVTVSS | low polyreactivity
19 | QVQLVESGGGLVQAGGSLRLSCAASGITFSSYVMGWYRQAPGKERELDAAISRSGGITYYADSVKGRFTISRDNAKNTVYLQMNSLKPEDTAVYYCAVRYYIYRPGGYDYWGQGTQVTVSS | high polyreactivity
20 | QVQLVESGGGLVQAGGSLRLSCAASGRILPWYAMGWYRQEPGKERELVARIRSTDSSNYADSVKGRFTISRDNAKNTVYLQMNSLKPEDTAFYYCAKVQWGFPYAWLGSDYWGQGTQVTVSS | low polyreactivity
21 | QVQIVESGGGLVQAGGSLSLSCAASGRTFQRNAMGWYRQAPGKERELVAAITTGSRTYYADSVKGRFTISRDNAKNTVYLQMNSLKPEDTAVYYCAAVATRRDYGYWGQGTQVTVLS | high polyreactivity
22 | QVQLVESGGGLVQAGGSLRLRCAASARIYDTYAMGWYRQAPGKERELVASISIDGSTYYADSVKGRFTISRDNAKNTVYLQMNSLKREDTAVYYCNADGRYYTVRFEYWGQGTQVTVSS | low polyreactivity

Row | Sequence | polyreactivity (PSR sort gate)
23 | QVQLVESGGGLVQAGGSLRLSCAASGSTFTRNAMGWYRQAPGKERELVAAISSSGGRTYYADSVKGRFTISRDNAKNTVYLQMNSLKPEDTAVYYCAAGIRTSAGYDYWGQGTQVTVSS | high polyreactivity
24 | QVQLVESGGGLVQAGGSLRLSCAASGNTFYHYAMGWYRQAPVKERELVAGIRYNGGSTYYADSVKGRFTISRDNAKNTVYLQMISLKPEDTAVYYCATRGRTAWYTMDYWGQGTQVTVSS | high polyreactivity
25 | QVQLVESGGGLVQAGGSLRLSCAASGFIFYDYTMGWYRQAPGKERELVAAISSRGGSTYYADSVKGRFTISRDNAKNTVYLQMNSLKPEDTAVYYCAAYWSQQTYEYWGQGTQVTVSS | high polyreactivity
26 | QVQLVESGGGLVQAGGSLRLSCPASGSTFEDNAMGWYRQAPGKERELVAAISRTGGRTYYADSVKGRFTISRDNAKNTVYLQMNSLKPEDTAVYYCNAVYPAQRMDYWGQGTQVTVSS | high polyreactivity
27 | QVQLVESGAGLVQAGGSLRLSCAPSGSTFEDYAMGWYRQAPGKERELVAAISHIGGSTYYADSVKGRFTISRDNAKNTVYLQMNSLKPEDTAVYYCAKGGFSSKFDYWGQGTQVTVSS | low polyreactivity
28 | QVQLVESGGGLVQAGGSLRLSCAASGFIFEYYAMGWYRQAPGKERELVAAISSSGGSTYYADSVKGRFTISRDNAKITVYLQINSLKPEDTAVYYCAKDYAPSAKKLHYWGQGTQVTVSS | low polyreactivity
29 | QVQLVDSGGGLVQAGGSLRLSCAASGRIFPVYAMAWYRHAPGKEREMVAAITKSGGNTYYADSVKGRFTISRDNAKYTVYLQMNSMKPEDTAVYYCAADSSAKMGPQYYYALDYWGQGTKVTVSS | low polyreactivity
30 | QVQLVESGGGLVQAGGSLRLSCAASGSIFSGYAMGWYRQAPGKERELVAAINSNGGRTYYADSVKGRFTISRDNAKNTVYLQMNSLKPEDTAVYYCNAAKRGWYYDYYYWGQGTQVTVSS | high polyreactivity
31 | QVQLVESGGGLVQAGGSLRLSCAASGRTSLAYAMGWYRKATGKERELVAGITSGGNTNYADSVKGRFTISCDNAKNSVYLQMNRLKPEDTAVYYCNKKKRWQWYSESVLDELGFYSWGQGTQVTVSS | low polyreactivity
32 | QVQLVESGGGLVQAGGSLRLSCAASGITFGRNTMGWYRQAPGKERELVAAIDSGGNTYADSVKGRFTISRDNAKNTVYLQMNSLKPEDTAVYYCAKDVYSYYYPYRYESWGQGTQVTVSS | low polyreactivity
33 | QVQLVESAGGLVQAGGSLRLSCAASGRIFKFYTMGWYRQAPGKERELVAAISSSDGSTHYADSVKGRFTISRDNAKNTVYLQMNSLKPEDTAVYYCAAQGGRNRGYRYYWGQGTQVTVSS | high polyreactivity
34 | QVQLVESGGGLVQAGGSLRLSCAASGFISRNAMGWYRQAPGKQRELVAGITRGGSTNYADSVKGRFTISRDNAKNTVYLHMNSLKPEYTAVYYFATRRRLKGLAYDYWGQGNQVTVSS | high polyreactivity
35 | QVQLVESGGGLVQAGGSLRLSCAASGGTFGYNVMGWYRQAPGKERELVAAISYSVGGTYYADSVKGRFTISRDNAKNTVYLQMNSLKPEDTEVYYCAATGRRRTYSEYEYWGQGTQVTVSS | high polyreactivity
36 | HVQLVESGGGLVQAGGSLRLSCAASGSIFSGNAMGWYRQAPGKERELVAAISYSDGSTYYADSVKGRFTISRDNAKNTVYLQMNSLKPEDTAVYYCAADGYPYTYDYWGQGTQVTVST | low polyreactivity
37 | QVQLVESGGGLVQAGGSLRLSCAASGIIFQFYAMGWYRPAPGKERELVAAISRSGGITHYADSVKGRFTISRDNAKNTVYLQMNSLKPEDTAVYYCNAVQPARFVGGFGTGVDYWGQGTQVTVSS | high polyreactivity
38 | QVQLVESGGGLVQAGGSLRLSCAASGRSFGKNAMGWYRQAPGKERELVAAISTSGGRTYYADSVKGRFTISRDNAKITFFLQMNSLKPEDTAVYYCNAKGWTRPPGYDYWGQGTQVTVSS | high polyreactivity
39 | QVQLVESGGGLVQAGGSLRLSCAASGSIFGLNALGWSRQAPGKERELVAGITWSGGSSTYYADSVKGRFTISRDYAKNTVYLQMNSLKPEDTAVYNCAARRVFIPYYVRFYYWGQGTQVTVSS | high polyreactivity
40 | QVQLVESGGGLVQAGGSLRISCAASGTTFPYNGMGWYRQAPGKERELVASISWSGASTYYADSVKGRFTISRDNAKNTVYLQMNSLKPEDTAVYYCAADPGYYSWGSSQDDYWGQGTQVTVSS | low polyreactivity
41 | QVQLVESGGGLVQAGGSLRVSCAASGIIFDGNAMGWYRQAPGKERELVAAITASGGSTHYADSVKGRFTISRDNAKNTVYLQMNSLKPEDTAVYYCNKRSRTTGDYDYWGQGTHVTVSS | low polyreactivity
42 | QVQLVESGGGLVQAGGSLRLSCAASGRTFTYNAMGWYRQAPGKERELVAAITYRGGSTYYADSVKGRFTISRDNAKNTVYLQMNSLKPEDTAVYYCAARVSYYRYNTPHYYYWGQGTQVTVSS | high polyreactivity
43 | QVQLVESGGGLVQAGGSLRLSCAASGSIFEIYAMGWYRQAPGKERELVAAISWSGGRTYYADSVKGRFTISRDNAKNTVYLQMNSLKPEDTAVYYCNAGQWRYPGLYYYWGQGTEVTVSS | high polyreactivity
